Assays:
[1] = biological target: T1, chalcone synthase-like B (ChSB)
T1 chain: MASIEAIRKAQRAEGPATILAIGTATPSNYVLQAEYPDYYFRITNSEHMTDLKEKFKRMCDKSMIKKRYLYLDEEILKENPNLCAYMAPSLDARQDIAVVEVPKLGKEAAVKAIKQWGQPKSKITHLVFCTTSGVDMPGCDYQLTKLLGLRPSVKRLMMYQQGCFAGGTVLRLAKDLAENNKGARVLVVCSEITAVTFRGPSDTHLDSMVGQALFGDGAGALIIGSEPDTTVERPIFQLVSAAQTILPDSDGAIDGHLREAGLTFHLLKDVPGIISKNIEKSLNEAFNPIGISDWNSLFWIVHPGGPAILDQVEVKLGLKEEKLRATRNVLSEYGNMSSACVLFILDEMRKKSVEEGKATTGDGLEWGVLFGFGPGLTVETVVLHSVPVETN

[2] = biological target: T2, chalcone synthase-like A (ChSA)
T2 chain: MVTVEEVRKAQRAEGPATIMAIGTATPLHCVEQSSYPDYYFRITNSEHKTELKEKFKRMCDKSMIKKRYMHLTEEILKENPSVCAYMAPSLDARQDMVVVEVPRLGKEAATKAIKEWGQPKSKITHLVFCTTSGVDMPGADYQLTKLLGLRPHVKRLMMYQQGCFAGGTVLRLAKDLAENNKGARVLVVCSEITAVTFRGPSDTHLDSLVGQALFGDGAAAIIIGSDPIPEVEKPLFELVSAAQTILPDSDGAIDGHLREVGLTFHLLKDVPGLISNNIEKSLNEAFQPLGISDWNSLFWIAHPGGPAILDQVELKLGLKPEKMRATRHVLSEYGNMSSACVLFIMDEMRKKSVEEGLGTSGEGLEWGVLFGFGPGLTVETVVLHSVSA

[3] = biological target: T3, chalcone synthase-like D (ChSD)
T3 chain: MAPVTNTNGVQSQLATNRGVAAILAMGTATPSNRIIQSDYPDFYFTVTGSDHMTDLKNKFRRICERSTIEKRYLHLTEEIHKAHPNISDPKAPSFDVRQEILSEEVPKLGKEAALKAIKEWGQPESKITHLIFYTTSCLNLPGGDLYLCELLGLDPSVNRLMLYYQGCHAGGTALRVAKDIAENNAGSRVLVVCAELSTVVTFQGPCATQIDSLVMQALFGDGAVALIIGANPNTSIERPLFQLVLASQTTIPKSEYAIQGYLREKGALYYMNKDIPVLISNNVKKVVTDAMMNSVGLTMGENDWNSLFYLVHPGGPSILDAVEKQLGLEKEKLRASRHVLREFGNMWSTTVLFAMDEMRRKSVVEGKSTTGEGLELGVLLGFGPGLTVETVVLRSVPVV

[4] = biological target: T4, chalcone synthase-like F (ChSF)
T4 chain: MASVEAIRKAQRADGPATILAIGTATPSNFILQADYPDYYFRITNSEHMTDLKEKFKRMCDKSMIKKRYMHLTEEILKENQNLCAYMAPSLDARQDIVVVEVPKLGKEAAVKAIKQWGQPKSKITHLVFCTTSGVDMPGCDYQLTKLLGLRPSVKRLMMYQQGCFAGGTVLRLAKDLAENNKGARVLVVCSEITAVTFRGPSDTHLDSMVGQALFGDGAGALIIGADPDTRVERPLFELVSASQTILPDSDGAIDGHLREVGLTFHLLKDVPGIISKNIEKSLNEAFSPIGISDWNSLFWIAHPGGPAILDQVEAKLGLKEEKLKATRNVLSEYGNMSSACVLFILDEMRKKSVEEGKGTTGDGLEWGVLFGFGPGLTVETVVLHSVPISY

[5] = biological target: T5, chalcone synthase-like C (ChSC)
T5 chain: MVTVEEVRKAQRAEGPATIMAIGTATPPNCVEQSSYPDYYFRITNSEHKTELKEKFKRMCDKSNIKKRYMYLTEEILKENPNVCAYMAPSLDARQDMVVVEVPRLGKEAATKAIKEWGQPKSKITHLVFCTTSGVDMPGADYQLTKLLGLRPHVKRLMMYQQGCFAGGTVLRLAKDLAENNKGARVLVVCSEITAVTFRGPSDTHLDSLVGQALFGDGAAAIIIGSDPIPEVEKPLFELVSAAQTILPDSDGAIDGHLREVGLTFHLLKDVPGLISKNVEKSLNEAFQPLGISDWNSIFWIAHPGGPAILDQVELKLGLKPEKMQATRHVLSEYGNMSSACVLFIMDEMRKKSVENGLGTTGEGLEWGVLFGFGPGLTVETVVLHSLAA

B1: chalcone synthase-like E (ChSE) (protein)
chain: MGSLDQDFQPNQVPTIRADAATVLAIGTANPPNCIPQAEFADFYFRVTNSNHMTDLKKKFKRICEKSSIKKRYVHLTEKILNENPNICTFKEPSLTARQNIATEEIPKLGKEAALKAIEEWGRPKSEITHLVFCTIGGAEMPSADYQLVHLLGLNPSVKRFMLYYQGCFAGGSVLRLAKDLAENNVGARVLVVCAEVSIPYFHGPSEAHFDSNLIWQMLCGDGAGAAIVGSNPRKLIERPLFQLVSASQTIVPNSEGAIKGTLSEMGIIFNLVDKVPVLIGNNIENCLEEAFGSLGISNWNSLFWVAHPGGPAILNQIEEKLKLKEEKLKASRHVLSEYGNMSSACVFFILDEMRRRSKEEGKITTGDGLEWGVLFGFGPGLTVETIVLRSISTNEAH
levels of product (QA-TriR-FRX-C9) in N. benthamiana leaves, ChS pairs co-infiltrated (repeat experiment) [1]: In a repeat experiment, ChSB paired with ChSE also led to a noticeable increase of product | levels of product (QA-TriR-FRX-C9) in N. benthamiana leaves, ChS pairs co-infiltrated [2]: Pairing ChSE with ChSA, ChSC, CHSD or CHSF increased the levels of product made compared to either ChSE by itself or to the combination of all ChSs but ChSE | QA-TriR-FRX-C9 amounts in N. benthamiana leaves, triads of ChSs co-infiltrated [3]: the triads containing ChSD consistently had higher QA-TriR-FRX-C9 amounts than those without | levels of product (QA-TriR-FRX-C9) in N. benthamiana leaves, ChS pairs co-infiltrated [3]: Pairing ChSE with ChSA, ChSC, CHSD or CHSF increased the levels of product made compared to either ChSE by itself or to the combination of all ChSs but ChSE | levels of QA-TriR-FRX-C9 in N. benthamiana leaves (drop-out of one of six co-infiltrated ChS candidates) (other ChS candidates): The levels of QA-TriR-FRX-C9 were not affected except when ChSE was absent | levels of product (QA-TriR-FRX-C9) in N. benthamiana leaves, ChS pairs co-infiltrated [4]: Pairing ChSE with ChSA, ChSC, CHSD or CHSF increased the levels of product made compared to either ChSE by itself or to the combination of all ChSs but ChSE | levels of product (QA-TriR-FRX-C9) in N. benthamiana leaves, ChS pairs co-infiltrated [5]: Pairing ChSE with ChSA, ChSC, CHSD or CHSF increased the levels of product made compared to either ChSE by itself or to the combination of all ChSs but ChSE
